Molecular target: RSV post-fusion F (Flys-GCN without StrepII-tag) (Respiratory Syncytial Virus)
Assay: cryo-EM structure

“RSV post-fusion F (Flys-GCN without StrepII-tag)” was tested, and the stoichiometry N was 3.

Reference: article doi:10.1101/2025.01.04.631317
